The values below come from patent US20170166895.

The target of the series is Complement component 3 (C3) (Homo sapiens) (UniProt P01024+P01024). The experiment in a line: filter. As to conditions: 3'-3' idT.
The mark [1] stands for this setting: all U = NapdU, T = dT, SB18T0.01, 37C.
Where [2] appears, read: all U in listing = NapdU, SB18T0.01, 37C.
The mark [3] stands for this setting: all U = NapdU, C3-spacer replaces C17, SB18T0.01, 37C.

Sequence of Complement component 3 (C3) (Homo sapiens) (P01024 23-667, chain 1 of 2): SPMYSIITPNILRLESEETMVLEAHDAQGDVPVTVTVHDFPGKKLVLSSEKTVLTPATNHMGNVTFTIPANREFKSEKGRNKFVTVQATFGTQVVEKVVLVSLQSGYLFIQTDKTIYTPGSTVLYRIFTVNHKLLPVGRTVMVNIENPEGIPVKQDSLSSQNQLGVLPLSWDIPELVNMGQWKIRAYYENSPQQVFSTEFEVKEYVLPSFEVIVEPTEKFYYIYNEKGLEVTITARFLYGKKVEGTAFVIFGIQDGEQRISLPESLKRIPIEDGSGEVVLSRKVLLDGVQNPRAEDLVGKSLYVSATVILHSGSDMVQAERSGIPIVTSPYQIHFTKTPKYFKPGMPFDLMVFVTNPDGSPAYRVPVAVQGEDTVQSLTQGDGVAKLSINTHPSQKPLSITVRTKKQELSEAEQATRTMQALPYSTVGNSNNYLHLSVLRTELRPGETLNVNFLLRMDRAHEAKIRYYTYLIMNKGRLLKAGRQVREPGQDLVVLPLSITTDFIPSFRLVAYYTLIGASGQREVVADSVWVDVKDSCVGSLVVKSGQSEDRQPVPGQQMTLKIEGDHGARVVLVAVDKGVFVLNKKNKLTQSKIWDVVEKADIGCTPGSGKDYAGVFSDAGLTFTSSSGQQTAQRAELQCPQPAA
Sequence of Complement component 3 (C3) (Homo sapiens) (P01024 672-1663, chain 2 of 2): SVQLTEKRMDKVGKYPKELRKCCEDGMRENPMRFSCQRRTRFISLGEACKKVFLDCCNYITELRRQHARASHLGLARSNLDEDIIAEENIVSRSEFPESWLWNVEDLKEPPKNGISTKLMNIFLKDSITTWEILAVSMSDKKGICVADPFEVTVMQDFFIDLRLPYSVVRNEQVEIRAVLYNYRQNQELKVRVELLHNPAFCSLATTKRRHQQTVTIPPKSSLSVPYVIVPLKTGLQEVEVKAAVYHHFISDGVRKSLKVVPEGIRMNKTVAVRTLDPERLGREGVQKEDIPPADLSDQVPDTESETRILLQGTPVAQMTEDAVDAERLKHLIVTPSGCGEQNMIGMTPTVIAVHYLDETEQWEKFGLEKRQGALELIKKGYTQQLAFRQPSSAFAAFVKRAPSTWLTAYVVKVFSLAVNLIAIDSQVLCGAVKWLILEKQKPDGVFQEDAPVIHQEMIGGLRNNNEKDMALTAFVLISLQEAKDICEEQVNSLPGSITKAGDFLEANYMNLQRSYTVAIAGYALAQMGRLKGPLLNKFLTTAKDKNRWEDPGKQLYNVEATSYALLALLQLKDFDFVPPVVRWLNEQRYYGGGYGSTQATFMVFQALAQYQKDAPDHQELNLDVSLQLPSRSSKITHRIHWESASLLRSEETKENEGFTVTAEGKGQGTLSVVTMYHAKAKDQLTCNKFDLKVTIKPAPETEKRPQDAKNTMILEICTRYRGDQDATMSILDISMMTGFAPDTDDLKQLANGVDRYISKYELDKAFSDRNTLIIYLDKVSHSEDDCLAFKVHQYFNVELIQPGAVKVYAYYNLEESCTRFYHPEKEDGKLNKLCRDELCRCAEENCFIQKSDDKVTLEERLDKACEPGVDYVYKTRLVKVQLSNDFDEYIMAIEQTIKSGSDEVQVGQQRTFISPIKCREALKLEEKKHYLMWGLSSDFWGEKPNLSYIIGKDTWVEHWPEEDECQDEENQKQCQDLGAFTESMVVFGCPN

Where the note is “P = NapdU (all U), 2'-OMe C26, SB18T0.01, 5 mM MgCl2, 37 C”, “CGGUGACUCAAUAGUCCGUACGUUCCCG [8491-94_84]” returned a dissociation constant (Kd) of 0.0738 nM.

Sequence “CCGGUGACUCAAUAGUCCGUACGUUCCCG [8491-94_51]” gave a dissociation constant (Kd) (all U = NapdU, C3-spacer replaces G29, SB18T0.01, 37C) of 0.227 nM.

“CCGGUGACUCAAUAGUCCGUACGUUCCCGGUCCGAACGCGGAGGA [8491-94_23]” came in with a Kd (all U = NapdU, SB18T0.01, 37C) of 0.0621 nM.

As for CGGUGACUCAAUAGUCGUACGUUCCG [8491-94_56], the dissociation constant (Kd) (all U = NapdU, C3-spacer replaces C17, C25, SB18T0.01, 37C) was 0.0464 nM.

Sequence “CCGGUGACUCAAUAGUCCUACGUUCCCGG [8491-94_44]” showed a dissociation constant Kd (all U = NapdU, C3-spacer replaces G19, SB18T0.01, 37C) of 1.28 nM.

For the sequence “CCCGGUGACUCAAUAGUCCGUACGUUCCCGGUCCGAACGCGGAGGA [8491-94_22]”, under “all U = NapdU, SB18T0.01, 37C”, the dissociation constant Kd is 0.103 nM.

In the case of “CCGUGACUCAAUAGUCCGUACGUUCCCGG [8491-94_32]”, the Kd (all U = NapdU, C3-spacer replaces G3, SB18T0.01, 37C) was determined as 0.78 nM.

For the sequence “GGGUGACUCAAUAGUCGUACGUUCCCC [8491-94_134]”, the equilibrium dissociation constant (Kd) (all P = NapdU, 2'-OMe at 1,2,3,5,7,9,10,13,19,20,22-28, C3-spacer replaces C17, SB18T0.01, 37C) was determined as 0.107 nM.

The sequence “ACTCCGAGCAUUGACUCAAUAGUCCGUACGUUUUUGACCGGGGCAGGGGGAGGA [8491-385_3]” displayed a Kd (all U in listing = NapdU, printed as 1.46-10, SB18T0.01, 37C) of 0.146 nM.

Consider “CGGUGACUCAAUAGUCCGUACGUUCCCG [8491-94_68]”, for which the equilibrium dissociation constant (Kd) (P = NapdU (all U), 2'-OMe A10, SB18T0.01, 5 mM MgCl2, 37 C) amounted to 0.0424 nM.

Under setting [1], “ACTCCCCGGUGACUCAAUAGUCCGUACGUUCCCGGTCCGAACGCGGAGGA [8491-94_18]” had a Kd of 0.0421 nM.

CGGUGAUCAAUAGUCGUACGUUCCG [8491-94_54] returned a Kd (all U = NapdU, C3-spacer replaces C7, C17, C25, SB18T0.01, 37C) of 0.0221 nM.

The sequence “ACTCCGAGCUUUUUUGACUCAAUUAGUCCGUACGUUUUUUGGCCGGGCAGGGGAGGA [8491-404_3]” gave an equilibrium dissociation constant (Kd) under setting [2] of 0.185 nM.

With “ACTCCCCGGUGACUCAATAGUCCGUACGUUCCCGGUCCGAACGCGGAGGA [8491-94_13]”, the equilibrium dissociation constant (Kd) under setting [1] was 41.7 nM.

In the case of “ACTCCCCGGUGACUCAAUAGUCCGUACGTUCCCGGUCCGAACGCGGAGGA [8491-94_16]”, the dissociation constant Kd under setting [1] came out at 69.4 nM.

For the setting “all U = NapdU, 2'-OMe at 1,2,3,5,7,9,10,13,19,20,22-28, C3-spacer replaces C17, SB18T0.01, 37C”, “CGGUGACUCAAUAGUCGUACGUUCCCG [8491-94_98]” gave a Kd of 0.095 nM.

Under setting [2], “ACTCCCUAUGAGGGCUGAUUCAAUAGUCAGUACGUUCGCCCCAUCGAGGA [8491-399_3]” showed a Kd of 8.61 nM.

For the setting “P = NapdU (all U), 2'-OMe C1, SB18T0.01, 5 mM MgCl2, 37 C”, “CGGUGACUCAAUAGUCCGUACGUUCCCG [8491-94_59]” came in with an equilibrium dissociation constant (Kd) of 0.0342 nM.

Take “ACTCCCUUAAAAGGGUCGUUGACUCCAUAGUCCGUACGUUUCCGAGAGGA [8491-394_3]”: the Kd under setting [2] is 0.448 nM.

“CGGUGACUCAAUAGUCCGUACGUUCCCGG [8491-94_29]” returned a Kd (all U = NapdU, SB18T0.01, 37C) of 0.0581 nM.

As to “CCCCGGUGACUCAAUAGUCCGUACGUUCCCGGUCC [8491-94_24]”, for the setting “all U = NapdU, SB18T0.01, 37C”, the equilibrium dissociation constant (Kd) was 0.0535 nM.

Take “UGGUGACUCAAUAGUCGUACAUUCCCA [8491-94_138]”: the Kd (all P = NapdU, U1 = 2'-OMe-U, 2'-OMe at 1,2,3,5,7,9,10,13,19,20,22-28, C3-spacer replaces C17, SB18T0.01, 37C) is 18.2 nM.

“ACTCCCCGGUGACUCAAUAGUCCGUACGUTCCCGGUCCGAACGCGGAGGA [8491-94_17]”: under setting [1], the dissociation constant (Kd) turned out to be 2.88 nM.

The sequence “CGGUGACUCAAUAGUCCGUACGUUCCCG [8491-94_79]” returned a Kd (P = NapdU (all U), 2'-OMe C21, SB18T0.01, 5 mM MgCl2, 37 C) of 0.273 nM.

With “CCGGUGCUCAAUAGUCCGUACGUUCCCGG [8491-94_35]”, the Kd (all U = NapdU, C3-spacer replaces A7, SB18T0.01, 37C) was 5.67 nM.

As to CGGUGAUAAUAGUCGUACGUUCCG [8491-94_55], for the setting “all U = NapdU, C3-spacer replaces C7, C9, C17, C25, SB18T0.01, 37C”, the dissociation constant Kd came out at 0.0415 nM.

In turn, “ACTCCCUAACACGGCCGAGUUGACUCCCAUAGUCCGUACGUUUGCGAGGA [8491-387_3]” came in with a Kd under setting [2] of 0.519 nM.

With “CGGUGACUCAAUAGUCGUATGUUCCCG [8491-94_133]”, the Kd (all P = NapdU, T = dT, 2'-OMe at 1,2,3,5,7,9,10,13,19,20 and all residues after T21, C3-spacer replaces C17, SB18T0.01, 37C) was 5.06 nM.

With “CGGUGACUCAAUAGUCCGUACGUUCCCG [8491-94_76]”, the Kd (all U = NapdU, 2'-OMe at G18, SB18T0.01, 37C) came to 0.93 nM.

In the case of “CGGUGACUCAAUAGUCCGUATGUUCCCG [8491-94_132]”, the equilibrium dissociation constant (Kd) (all P = NapdU, T = dT, 2'-OMe at 1,2,3,5,7,9,10,13,19,20,22-28, SB18T0.01, 37C) came to 12.7 nM.

On to “ACTCCCCGGUGACTCAAUAGUCCGUACGUUCCCGGUCCGAACGCGGAGGA [8491-94_12]”, for which the Kd under setting [1] was 8.57 nM.

Under “P = NapdU (all U), 2'-OMe C17, SB18T0.01, 5 mM MgCl2, 37 C”, “CGGUGACUCAAUAGUCCGUACGUUCCCG [8491-94_75]” yielded a dissociation constant Kd of 0.214 nM.

Take “ACTCCCCGGUGACUCAAUAGUCCGUACGUUCCCGGUCCGAACGCGGA [8491-94_4]”: the Kd (all U = NapdU, SB18T0.01, 37C) came out at 0.0291 nM.

As to “TGGUGACUCAAUAGUCCGUACGUUCCCA [8491-94_128]”, under “all P = NapdU, T1 = dT, 2'-OMe at 2,3,5,7,9,10,13,19,20,22-28, SB18T0.01, 37C”, the Kd is 0.038 nM.

For the setting “P = NapdU (all U), 2'-OMe G28, SB18T0.01, 5 mM MgCl2, 37 C”, “CGGUGACUCAAUAGUCCGUACGUUCCCG [8491-94_86]” yielded a Kd of 0.0344 nM.

The sequence “CGGUGACUCAAUAGUCCGUACGUUCCCG [8491-94_82]” had a dissociation constant Kd (all U = NapdU, 2'-OMe at NapdU24, SB18T0.01, 37C) of 0.0118 nM.

“CCGGUGACUCAAUAGUCCGUACGUUCCGG [8491-94_50]” showed an equilibrium dissociation constant (Kd) (all U = NapdU, C3-spacer replaces C28, SB18T0.01, 37C) of 0.448 nM.

For the sequence “ACTCCAGACUGUAGUUGACUCCAUAGUCCGUACGUUUACACAUUGGAGGA [8491-189_3]”, under setting [2], the Kd was 0.0335 nM.

On to “CGGUGACUCAAUAGUCCGUACGUUCCCG [8491-94_69]”, for which the equilibrium dissociation constant (Kd) (P = NapdU (all U), 2'-OMe A11, SB18T0.01, 5 mM MgCl2, 37 C) was 0.272 nM.

The sequence “CGGUGACUCAAUAGUCCGUACGUUCCCG [8491-94_73]” had a Kd (all U = NapdU, 2'-OMe at NapdU15, SB18T0.01, 37C) of 1.32 nM.

Take “ACTCCCCGGUGACUCAAUAGUCCGUACGUUCCCGGUCCGAACGCGGAGGA [8491-94_3]”: where the note is “all U in listing = NapdU, SB18T0.01 (5 mM MgCl2), 37C”, the Kd was found to be 0.0313 nM.

For the sequence “CGGUGACUCAAUAGUCCGUACGUUCCCG [8491-94_60]”, where the note is “P = NapdU (all U), 2'-OMe G2, SB18T0.01, 5 mM MgCl2, 37 C”, the Kd came out at 0.0537 nM.

In the case of “ACTCCUCCCACACGACGAAUUUGACUCAAUAGUCCGUACGUUUUAGAGGA [8491-402_3]”, the dissociation constant (Kd) under setting [2] came out at 0.0739 nM.

For “CCCCGGUGACUCAAUAGUCCGUACGUUCCCGGUCCGAACGCGGAGGA [8491-94_8]”, the equilibrium dissociation constant (Kd) (all U = NapdU, SB18T0.01, 37C) worked out at 0.0369 nM.

As to “ACTCCCCGGUGACUCAAUAGUCCGUACGUUCCCGGUCCGAACGC [8491-94_5]”, the dissociation constant Kd (all U = NapdU, SB18T0.01, 37C) came out at 0.0298 nM.

Turning to “ACTCCCCGGUGACUCAAUAGUCCGUACGUU [8491-94_21]”, the Kd (all U = NapdU, SB18T0.01, 37C) was 0.249 nM.

In turn, “ACTCCCCGGUGACUCAAUAGUCCGUACGUUCC [8491-94_20]” had a Kd (all U = NapdU, SB18T0.01, 37C) of 1.14 nM.

Under “all U = NapdU, SB18T0.01, 37C”, “UGACUCAAUAGUCCGUACGUUCCCGGUCCGAACGCGGAGGA [8491-94_10]” returned a Kd of 7.6 nM.

“CCGGUGACUCAAUAGUCGUACGUUCCCGG [8491-94_42]” registered a Kd under setting [3] of 0.86 nM.

CGGUGACUCAAUAGUCGUACGUUCCG [8491-94_99] displayed a Kd (all U = NapdU, 2'-OMe at 1,2,3,5,7,9,10,13,19,20,22,23,24,26,27,28, C3-spacer replaces C17, C25, SB18T0.01, 37C) of 0.167 nM.

Under setting [3], “CGGUGACUCAAUAGUCGUACGUUCCCG [8491-94_58]” returned an equilibrium dissociation constant (Kd) of 0.787 nM.

Under setting [2], “ACTCCUCCCUUUGGCUCGAUAGUCGGUACGUUUUGGGGAGGCGUGGAGGA [8491-409_3]” yielded a dissociation constant Kd of 0.316 nM.

As for “CGGUGACUCAAUAGUCCGUACGUUCCCG [8491-94_62]”, the Kd (P = NapdU (all U), 2'-OMe P4, SB18T0.01, 5 mM MgCl2, 37 C) turned out to be 0.0918 nM.

In the case of “CGGUGACUCAAUAGUCCGUACGUUCCG [8491-94_87]”, the dissociation constant Kd (all U = NapdU, SB18T0.01, 37C) is 0.154 nM.

In turn, “CGGUGACUCAAUAGUCCGUACGUUCCCG [8491-94_70]” displayed an equilibrium dissociation constant (Kd) (P = NapdU (all U), 2'-OMe P12, SB18T0.01, 5 mM MgCl2, 37 C) of 0.338 nM.

Where the note is “all U = NapdU, C3-spacer replaces C18, SB18T0.01, 37C”, “CCGGUGACUCAAUAGUCGUACGUUCCCGG [8491-94_43]” showed a Kd of 0.0142 nM.

“CGGUGACUCAAUAGUCCGUACGUUCCCG [8491-94_85]” registered a Kd (P = NapdU (all U), 2'-OMe C27, SB18T0.01, 5 mM MgCl2, 37 C) of 0.0524 nM.

In turn, “TGGUGACUCAAUAGUCCGUATGUUCCCA [8491-94_130]” came in with an equilibrium dissociation constant (Kd) (all P = NapdU, T = dT, 2'-OMe at 2,3,5,7,9,10,13,19,20,22-28, SB18T0.01, 37C) of 17.9 nM.

With “GGGUGACUCAAUAGUCCGUACAUUCCCC [8491-94_135]”, the Kd (all P = NapdU, 2'-OMe at 1,2,3,5,7,9,10,13,19,20,22-28, SB18T0.01, 37C) turned out to be 15.3 nM.

Sequence “ACTCCUGUUGACUCACAUAGUCCGUACGUUUACGGCAAUAGCACAGAGGA [8491-396_3]” displayed a dissociation constant (Kd) under setting [2] of 0.311 nM.

“ACTCCCCGGTGACUCAAUAGUCCGUACGUUCCCGGUCCGAACGCGGAGGA [8491-94_11]” gave a Kd under setting [1] of 29.5 nM.
